Consider two molecules from patent US8440430, “Modified dicer polypeptide and methods of use thereof” (The Regents of the University of California).

One data set has as its target T1, TRBP, Q15633.
T1 chain: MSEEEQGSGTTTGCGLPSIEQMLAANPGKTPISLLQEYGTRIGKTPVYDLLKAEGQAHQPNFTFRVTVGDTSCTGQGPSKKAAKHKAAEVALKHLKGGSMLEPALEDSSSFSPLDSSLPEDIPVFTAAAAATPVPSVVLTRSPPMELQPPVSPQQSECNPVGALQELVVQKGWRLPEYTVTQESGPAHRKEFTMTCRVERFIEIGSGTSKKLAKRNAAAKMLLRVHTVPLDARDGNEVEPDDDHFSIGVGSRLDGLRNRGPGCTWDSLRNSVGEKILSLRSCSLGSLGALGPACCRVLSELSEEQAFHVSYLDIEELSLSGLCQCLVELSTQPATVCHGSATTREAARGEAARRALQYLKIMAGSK

Data set [1] deals with T2, ΔDEAD human Dicer (deletion of amino acids 1-604 spanning the entire DExD/H-box domain) (human, UniProt Q9UPY3 605-1922).
T2 construct: The DEAD-F primer adds an initiator Met; also called ΔDEAD hDcr; DExD/H-box deletion protein
T2 sequence: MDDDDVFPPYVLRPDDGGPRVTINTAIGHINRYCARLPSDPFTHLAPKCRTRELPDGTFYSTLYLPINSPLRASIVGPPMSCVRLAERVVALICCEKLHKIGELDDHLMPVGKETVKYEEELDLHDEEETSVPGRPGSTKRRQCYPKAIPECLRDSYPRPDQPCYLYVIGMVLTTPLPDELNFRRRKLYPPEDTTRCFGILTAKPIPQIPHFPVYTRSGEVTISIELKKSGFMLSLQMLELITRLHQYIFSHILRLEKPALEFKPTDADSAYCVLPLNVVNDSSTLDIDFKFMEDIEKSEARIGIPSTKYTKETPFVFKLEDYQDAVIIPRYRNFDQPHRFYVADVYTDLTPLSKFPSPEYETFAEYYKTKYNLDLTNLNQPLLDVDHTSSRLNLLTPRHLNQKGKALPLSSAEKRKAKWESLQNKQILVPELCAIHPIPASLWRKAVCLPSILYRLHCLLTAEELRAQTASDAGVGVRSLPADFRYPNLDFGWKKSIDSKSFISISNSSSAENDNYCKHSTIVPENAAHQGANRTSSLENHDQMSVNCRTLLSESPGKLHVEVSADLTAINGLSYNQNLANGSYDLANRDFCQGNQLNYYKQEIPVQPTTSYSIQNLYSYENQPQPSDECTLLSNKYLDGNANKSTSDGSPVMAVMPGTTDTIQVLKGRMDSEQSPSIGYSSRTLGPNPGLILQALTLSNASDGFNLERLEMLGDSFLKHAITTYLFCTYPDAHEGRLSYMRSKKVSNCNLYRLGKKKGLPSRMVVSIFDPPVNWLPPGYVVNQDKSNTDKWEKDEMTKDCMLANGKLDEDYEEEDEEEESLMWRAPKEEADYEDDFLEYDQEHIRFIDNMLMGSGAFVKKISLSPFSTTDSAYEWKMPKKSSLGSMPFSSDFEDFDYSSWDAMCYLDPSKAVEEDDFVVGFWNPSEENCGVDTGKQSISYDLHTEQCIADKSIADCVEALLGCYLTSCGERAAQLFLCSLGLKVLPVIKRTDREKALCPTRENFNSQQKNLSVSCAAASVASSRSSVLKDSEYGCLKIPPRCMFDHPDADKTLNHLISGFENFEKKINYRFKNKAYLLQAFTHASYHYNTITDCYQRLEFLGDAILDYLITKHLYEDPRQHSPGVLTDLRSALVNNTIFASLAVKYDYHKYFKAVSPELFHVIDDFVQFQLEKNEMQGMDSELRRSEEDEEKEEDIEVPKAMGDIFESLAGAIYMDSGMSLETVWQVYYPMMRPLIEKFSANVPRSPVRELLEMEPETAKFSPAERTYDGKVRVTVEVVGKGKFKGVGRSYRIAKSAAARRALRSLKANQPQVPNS
Description: size exclusion chromatography with SDS-PAGE of fractions after 60 min pre-incubation on ice. The procedure: FIGS. 6A and 6B. Interaction of human Dicer with TRBP mediated by DEAD domain A, TRBP interacts with hDcr through DEAD domain. Prior to size exclusion chromatography, 2.5 nmol of each human Dicer protein and 9.0 nmol of TRBP were pre-incubated on ice for 60 minutes. Left panel, a chromatogram (top) of wild-type human Dicer (flhDcr) with TRBP and SDS-PAGE gel analysis of fractions (bottom); Right panel, a chromatogram (top) of ΔDEAD human Dicer (ΔDEAD) with TRBP and SDS-PAGE gel analysis of fractions (bottom). B, Binding of TRBP to hDcr increased its dicing activity. A multiple-turnover assay for 37ab cleavage using 100 nM dsRNA and 5 nM hDcr or hDcr-TRBP.
A general note: Size exclusion chromatography separates by hydrodynamic size, large species first.

B1: full-length wild-type human Dicer (hDcr), accession no. NP-803187 (protein)
chain: MKSPALQPLSMAGLQLMTPASSPMGPFFGLPWQQEAIHDNIYTPRKYQVELLEAALDHNTIVCLNTGSGKTFIAVLLTKELSYQIRGDFSRNGKRTVFLVNSANQVAQQVSAVRTHSDLKVGEYSNLEVNASWTKERWNQEFTKHQVLIMTCYVALNVLKNGYLSLSDINLLVFDECHLAILDHPYREIMKLCENCPSCPRILGLTASILNGKCDPEELEEKIQKLEKILKSNAETATDLVVLDRYTSQPCEIVVDCGPFTDRSGLYERLLMELEEALNFINDCNISVHSKERDSTLISKQILSDCRAVLVVLGPWCADKVAGMMVRELQKYIKHEQEELHRKFLLFTDTFLRKIHALCEEHFSPASLDLKFVTPKVIKLLEILRKYKPYERQQFESVEWYNNRNQDNYVSWSDSEDDDEDEEIEEKEKPETNFPSPFTNILCGIIFVERRYTAVVLNRLIKEAGKQDPELAYISSNFITGHGIGKNQPRNKQMEAEFRKQEEVLRKFRAHETNLLIATSIVEEGVDIPKCNLVVRFDLPTEYRSYVQSKGRARAPISNYIMLADTDKIKSFEEDLKTYKAIEKILRNKCSKSVDTGETDIDPVMDDDDVFPPYVLRPDDGGPRVTINTAIGHINRYCARLPSDPFTHLAPKCRTRELPDGTFYSTLYLPINSPLRASIVGPPMSCVRLAERVVALICCEKLHKIGELDDHLMPVGKETVKYEEELDLHDEEETSVPGRPGSTKRRQCYPKAIPECLRDSYPRPDQPCYLYVIGMVLTTPLPDELNFRRRKLYPPEDTTRCFGILTAKPIPQIPHFPVYTRSGEVTISIELKKSGFMLSLQMLELITRLHQYIFSHILRLEKPALEFKPTDADSAYCVLPLNVVNDSSTLDIDFKFMEDIEKSEARIGIPSTKYTKETPFVFKLEDYQDAVIIPRYRNFDQPHRFYVADVYTDLTPLSKFPSPEYETFAEYYKTKYNLDLTNLNQPLLDVDHTSSRLNLLTPRHLNQKGKALPLSSAEKRKAKWESLQNKQILVPELCAIHPIPASLWRKAVCLPSILYRLHCLLTAEELRAQTASDAGVGVRSLPADFRYPNLDFGWKKSIDSKSFISISNSSSAENDNYCKHSTIVPENAAHQGANRTSSLENHDQMSVNCRTLLSESPGKLHVEVSADLTAINGLSYNQNLANGSYDLANRDFCQGNQLNYYKQEIPVQPTTSYSIQNLYSYENQPQPSDECTLLSNKYLDGNANKSTSDGSPVMAVMPGTTDTIQVLKGRMDSEQSPSIGYSSRTLGPNPGLILQALTLSNASDGFNLERLEMLGDSFLKHAITTYLFCTYPDAHEGRLSYMRSKKVSNCNLYRLGKKKGLPSRMVVSIFDPPVNWLPPGYVVNQDKSNTDKWEKDEMTKDCMLANGKLDEDYEEEDEEEESLMWRAPKEEADYEDDFLEYDQEHIRFIDNMLMGSGAFVKKISLSPFSTTDSAYEWKMPKKSSLGSMPFSSDFEDFDYSSWDAMCYLDPSKAVEEDDFVVGFWNPSEENCGVDTGKQSISYDLHTEQCIADKSIADCVEALLGCYLTSCGERAAQLFLCSLGLKVLPVIKRTDREKALCPTRENFNSQQKNLSVSCAAASVASSRSSVLKDSEYGCLKIPPRCMFDHPDADKTLNHLISGFENFEKKINYRFKNKAYLLQAFTHASYHYNTITDCYQRLEFLGDAILDYLITKHLYEDPRQHSPGVLTDLRSALVNNTIFASLAVKYDYHKYFKAVSPELFHVIDDFVQFQLEKNEMQGMDSELRRSEEDEEKEEDIEVPKAMGDIFESLAGAIYMDSGMSLETVWQVYYPMMRPLIEKFSANVPRSPVRELLEMEPETAKFSPAERTYDGKVRVTVEVVGKGKFKGVGRSYRIAKSAAARRALRSLKANQPQVPNS
On to B1, for which, in the data set with TRBP, Q15633, the “cleavage rate in a multiple-turnover assay for 37ab cleavage (100 nM dsRNA, 5 nM hDcr or hDcr-TRBP)” value is “increased the cleavage rate of the resulting protein complex”.

B2: TRBP (other, human, UniProt Q15633 1-366, looked up)
chain: MSEEEQGSGTTTGCGLPSIEQMLAANPGKTPISLLQEYGTRIGKTPVYDLLKAEGQAHQPNFTFRVTVGDTSCTGQGPSKKAAKHKAAEVALKHLKGGSMLEPALEDSSSFSPLDSSLPEDIPVFTAAAAATPVPSVVLTRSPPMELQPPVSPQQSECNPVGALQELVVQKGWRLPEYTVTQESGPAHRKEFTMTCRVERFIEIGSGTSKKLAKRNAAAKMLLRVHTVPLDARDGNEVEPDDDHFSIGVGSRLDGLRNRGPGCTWDSLRNSVGEKILSLRSCSLGSLGALGPACCRVLSELSEEQAFHVSYLDIEELSLSGLCQCLVELSTQPATVCHGSATTREAARGEAARRALQYLKIMAGSK
notes: also called human partner protein TRBP
For the molecule B2, the binding result in data set [1] was “no binding”.
